Target: the molecule itself
Test: Western blot under non-reducing, non-heated conditions; self-association

B1: rice-derived CTB.OspA fusion protein (other)
chain: TPQNITDLCAEYHNTQIHTLNDKIFSYTESLAGKREMAIITFKNGATFQVEVPGSQHIDSQKKAIERMKDTLRIAYLTEAKVEKLCVWNNKTPHAIAAISMANPGPGPGCKQNVSSLDEKNSVSVDLPGEMKVLVSKEKNKDGKYDLIATVDKLELKGTSDKNNGSGVLEGVKADKSKVKLTISDDLGQTTLEVFKEDGKTLVSKKVTSKDKSSTEEKFNEKGEVSEKIITRADGTRLEYTGIKSDGSGKAKEVLKGYVLEGTLTAEKTTLVVKEGTVTLSKNIAKSGEVSVELNDADSSAATKKTAAWNSGTSTLTITVNSKKTKDLVFTKENTITVQQYDSAGTKLEGSAVEITKLDEIKNALK
notes: also called OspA-CTB fusion protein; rice CTB.OspA fusion protein
binding result: binds

Source: US20160213766A1 (VENTRIA BIOSCIENCE, published 2016)
